Laboratory results taken from patent publication US9260500B2, “Peptide and use thereof” (Takeda Pharmaceutical Company Limited, priority 2009, dated 2016).
Starred links: 1 amine or outer side, 2 acyl side, 3 side chain; linkers in the order of their positions; H or OH if unused. Non-standard residues stand in square brackets, D forms with d. *: point of attachment. X4 = ((1S)-1-Carboxy-3-methylbutyl)carbamoyl, CC(C)C[C@H](NC(=O)*)C(=O)O; X2 = (tetrahydro-2H-pyran-4-ylmethyl)carbamoyl, O=C(NCC1CCOCC1)*; X7 = (tetrahydro-2H-pyran-4-yl)carbamoyl, O=C(NC1CCOCC1)*; (3-Carboxypropyl)carbamoyl = O=C(O)CCCNC(=O)*; (3-carboxypropyl)carbamoyl = O=C(O)CCCNC(=O)*; Imidazole4carbonyl = O=C(c1cnc[nH]1)*; Arg(Me) = CNC(=N)NCCC[C@H](N)C(=O)O; tBuAla = CC(C)(C)C[C@H](N)C(=O)O; 4Pal = N[C@@H](Cc1ccncc1)C(=O)O; dHyp = O=C(O)[C@H]1C[C@H](O)CN1; Cha = N[C@@H](CC1CCCCC1)C(=O)O; Suc = O=C(CCC(=O)[*:2])[*:1]; Iva = CC[C@](C)(N)C(=O)O; Aib = CC(C)(N)C(=O)O; Glycolyl = O=C(CO)*

Columns and labels:
[1] = molecular target: T1, human Y2 receptor (Homo sapiens, UniProt P49146); experiment: Human Y2 Receptor G Protein Binding Assay (GBA), [35S]GTPγS; type: biochemical; settings: EC50 of test compound/EC50 of PYY(3-36) (PYY3-36 taken as 1), hY2R/CHO membrane fraction
T1 construct: expressed in transfected cells; membrane fraction
T1 sequence (P49146 1-381): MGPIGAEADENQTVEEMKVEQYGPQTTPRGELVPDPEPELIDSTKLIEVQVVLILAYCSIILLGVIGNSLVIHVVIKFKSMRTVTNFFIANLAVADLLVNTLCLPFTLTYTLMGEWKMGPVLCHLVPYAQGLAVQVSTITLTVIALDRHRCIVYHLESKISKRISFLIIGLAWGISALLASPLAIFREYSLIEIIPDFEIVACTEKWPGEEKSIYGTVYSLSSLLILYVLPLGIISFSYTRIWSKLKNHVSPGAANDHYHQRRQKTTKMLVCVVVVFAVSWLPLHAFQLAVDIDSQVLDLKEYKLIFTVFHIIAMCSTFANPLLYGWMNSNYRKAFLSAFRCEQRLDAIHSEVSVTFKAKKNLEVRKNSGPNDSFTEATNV
How it was run: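 Agonism measured as [35S]GTPγS binding, read by GF/C filtration and scintillation counting after 120 min at room temperature, using human Y2 membranes at 1 μg protein/mL in pH 7.4 Tris/MgCl2/NaCl/GDP buffer. Compound serially diluted 100 μM–1 nM; EC50 normalized to PYY(3-36) (ratio = compound/PYY).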

[2] = test system: male C57EL/6J mice; experiment: 3-Days Continuous Subcutaneous Administration Test-1 (food intake suppressing activity); type: in vivo, mouse; settings: 0.03 mg/kg/day, subcutaneous Alzet pump, food consumption over 3 days; relative to food intake suppression rate for PYY(3-36) (1 mg/kg/day) taken as 100%
How it was run: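 Male […] mice, 12-13 weeks, received compound at 0.03 mg/kg/day by subcutaneous osmotic pump (50% DMSO vehicle), housed singly with free food access. Food consumed over 3 days measured; suppression expressed relative to PYY(3-36) (1 mg/kg/day) set as 100%.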

[3] = molecular target: T1, human Y2 receptor; experiment: Receptor Binding Assay (RBA) for Human Y2, [125I]-PYY displacement on hY2R/CHO membrane fraction; settings: IC50 of test compound/IC50 of PYY(3-36) (PYY(3-36) taken as 1)
How it was run: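 Read-out is [125I]-PYY displacement from membranes of CHO/dhfr− cells stably transfected with human Y2R. Membranes were obtained by disrupting cells in a buffer of 10 mM NaHCO3, 5 mM EDTA and protease inhibitors.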

Substance	GBA EC50 Ratio [1]	RBA IC50 Ratio [3]	food intake suppression rate (%) [2]
3-Carboxypropionyl-[D-Hyp24, Iva25, Pya(4)26, Cha27,36, Leu(Me)28, Lys30, Aib31]-PYY(23-36) (Suc-S[dHyp][Iva][4Pal][Cha][tBuAla]NK[Aib]TRQR[Cha]-NH2; SMILES CC[C@](C)(NC(=O)[C@H]1C[C@H](O)CN1C(=O)[C@H](CO)NC(=O)CCC(=O)O)C(=O)N[C@@H](Cc1ccncc1)C(=O)N[C@@H](CC1CCCCC1)C(=O)N[C@@H](CC(C)(C)C)C(=O)N[C@@H](CC(N)=O)C(=O)N[C@@H](CCCCN)C(=O)NC(C)(C)C(=O)N[C@H](C(=O)N[C@@H](CCCNC(=N)N)C(=O)N[C@@H](CCC(N)=O)C(=O)N[C@@H](CCCNC(=N)N)C(=O)N[C@@H](CC1CCCCC1)C(N)=O)[C@@H](C)O) [compound No. 350]	1.9	0.92	41%
Glycoloyl-[D-Hyp24, Iva25,28, Pya(4)26, Cha27,36, Leu(Me)28, Lys30, Aib31]-PYY(23-36) (Glycolyl-S[dHyp][Iva][4Pal][Cha][Iva]NK[Aib]TRQR[Cha]-NH2) [compound No. 338]	2.1	1.9	27%
(Tetrahydro-2H-pyran-4-yl)carbamoyl-[D-Pro24, Iva25, Pya(4)26, Cha27,36, Aib28,31, Lys30]-PYY(23-36) (X7-S[dP][Iva][4Pal][Cha][Aib]NK[Aib]TRQR[Cha]-NH2; SMILES CC[C@](C)(NC(=O)[C@H]1CCCN1C(=O)[C@H](CO)NC(=O)NC1CCOCC1)C(=O)N[C@@H](Cc1ccncc1)C(=O)N[C@@H](CC1CCCCC1)C(=O)NC(C)(C)C(=O)N[C@@H](CC(N)=O)C(=O)N[C@@H](CCCCN)C(=O)NC(C)(C)C(=O)N[C@H](C(=O)N[C@@H](CCCNC(=N)N)C(=O)N[C@@H](CCC(N)=O)C(=O)N[C@@H](CCCNC(=N)N)C(=O)N[C@@H](CC1CCCCC1)C(N)=O)[C@@H](C)O) [compound No. 330]	1.8	1.7	36%
4-Imidazolecarbonyl-[D-Pro24, Iva25, Pya(4)26, Cha27,30,36, Aib28,31]-PYY(23-36) (Imidazole4carbonyl-S[dP][Iva][4Pal][Cha][Aib]N[Cha][Aib]TRQR[Cha]-NH2; SMILES CC[C@](C)(NC(=O)[C@H]1CCCN1C(=O)[C@H](CO)NC(=O)c1cnc[nH]1)C(=O)N[C@@H](Cc1ccncc1)C(=O)N[C@@H](CC1CCCCC1)C(=O)NC(C)(C)C(=O)N[C@@H](CC(N)=O)C(=O)N[C@@H](CC1CCCCC1)C(=O)NC(C)(C)C(=O)N[C@H](C(=O)N[C@@H](CCCNC(=N)N)C(=O)N[C@@H](CCC(N)=O)C(=O)N[C@@H](CCCNC(=N)N)C(=O)N[C@@H](CC1CCCCC1)C(N)=O)[C@@H](C)O) [compound No. 318]	1.9	2.3	18%
Ac-[D-Pro24, Iva25, Pya(4)26, Cha27,36, Aib28,31, Lys30]-PYY(23-36) (Ac-S[dP][Iva][4Pal][Cha][Aib]NK[Aib]TRQR[Cha]-NH2; SMILES CC[C@](C)(NC(=O)[C@H]1CCCN1C(=O)[C@H](CO)NC(C)=O)C(=O)N[C@@H](Cc1ccncc1)C(=O)N[C@@H](CC1CCCCC1)C(=O)NC(C)(C)C(=O)N[C@@H](CC(N)=O)C(=O)N[C@@H](CCCCN)C(=O)NC(C)(C)C(=O)N[C@H](C(=O)N[C@@H](CCCNC(=N)N)C(=O)N[C@@H](CCC(N)=O)C(=O)N[C@@H](CCCNC(=N)N)C(=O)N[C@@H](CC1CCCCC1)C(N)=O)[C@@H](C)O) [compound No. 237]	2.9	2.9	46%
Ac-[D-Pro24, Iva25,28, Pya(4)26, Cha27,36, Lys30, Aib31]-PYY(23-36) (Ac-S[dP][Iva][4Pal][Cha][Iva]NK[Aib]TRQR[Cha]-NH2; SMILES CC[C@](C)(NC(=O)[C@H](CC1CCCCC1)NC(=O)[C@H](Cc1ccncc1)NC(=O)[C@](C)(CC)NC(=O)[C@H]1CCCN1C(=O)[C@H](CO)NC(C)=O)C(=O)N[C@@H](CC(N)=O)C(=O)N[C@@H](CCCCN)C(=O)NC(C)(C)C(=O)N[C@H](C(=O)N[C@@H](CCCNC(=N)N)C(=O)N[C@@H](CCC(N)=O)C(=O)N[C@@H](CCCNC(=N)N)C(=O)N[C@@H](CC1CCCCC1)C(N)=O)[C@@H](C)O) [compound No. 296]	1.0	1.1	36%
[(1S)-1-Carboxy-3-methylbutyl]carbamoyl-[D-Pro24, Pya(4)26, Cha27,36, Aib28,31, Lys30]-PYY(23-36) (X4-S[dP]R[4Pal][Cha][Aib]NK[Aib]TRQR[Cha]-NH2; SMILES CC(C)C[C@H](NC(=O)N[C@@H](CO)C(=O)N1CCC[C@@H]1C(=O)N[C@@H](CCCNC(=N)N)C(=O)N[C@@H](Cc1ccncc1)C(=O)N[C@@H](CC1CCCCC1)C(=O)NC(C)(C)C(=O)N[C@@H](CC(N)=O)C(=O)N[C@@H](CCCCN)C(=O)NC(C)(C)C(=O)N[C@H](C(=O)N[C@@H](CCCNC(=N)N)C(=O)N[C@@H](CCC(N)=O)C(=O)N[C@@H](CCCNC(=N)N)C(=O)N[C@@H](CC1CCCCC1)C(N)=O)[C@@H](C)O)C(=O)O) [compound No. 271]	0.82	0.82	28%
4-Imidazolecarbonyl-[D-Hyp24, Iva25, Pya(4)26, Cha27,36, Leu(Me)28, Lys30, Aib31]-PYY(23-36) (Imidazole4carbonyl-S[dHyp][Iva][4Pal][Cha][tBuAla]NK[Aib]TRQR[Cha]-NH2; ends and bridges not checked) [compound No. 336]	1.4	0.75	52%
Ac-[D-Hyp24, Iva25,28, Pya(4)26, Cha27,36, Lys30, Aib31]-PYY(23-36) (Ac-S[dHyp][Iva][4Pal][Cha][Iva]NK[Aib]TRQR[Cha]-NH2; ends and bridges not checked) [compound No. 298]	1.0	0.86	56%

Second part, led by results:

GBA EC50 Ratio [1]	RBA IC50 Ratio [3]	Substance	food intake suppression rate (%) [2]
1.2	1.1	Ac-[D-Pro24, Pya(4)26, Cha27,36, Aib28,31, Arg(Me)30]-PYY(23-36) (Ac-S[dP]R[4Pal][Cha][Aib]N[Arg(Me)][Aib]TRQR[Cha]-NH2) [compound No. 314]	21%
0.7	0.82	(Tetrahydro-2H-pyran-4-ylmethyl)carbamoyl-[D-Pro24, Pya(4)26, Cha27,36, Aib28,31, Lys30]-PYY(23-36) (X2-S[dP]R[4Pal][Cha][Aib]NK[Aib]TRQR[Cha]-NH2; SMILES C[C@@H](O)[C@H](NC(=O)C(C)(C)NC(=O)[C@H](CCCCN)NC(=O)[C@H](CC(N)=O)NC(=O)C(C)(C)NC(=O)[C@H](CC1CCCCC1)NC(=O)[C@H](Cc1ccncc1)NC(=O)[C@H](CCCNC(=N)N)NC(=O)[C@H]1CCCN1C(=O)[C@H](CO)NC(=O)NCC1CCOCC1)C(=O)N[C@@H](CCCNC(=N)N)C(=O)N[C@@H](CCC(N)=O)C(=O)N[C@@H](CCCNC(=N)N)C(=O)N[C@@H](CC1CCCCC1)C(N)=O) [compound No. 325]	47%
1.9	1.6	(3-Carboxypropyl)carbamoyl-[D-Pro24, Iva25, Pya(4)26, Cha27,36, Aib28,31, Lys30]-PYY(23-36) ({(3-Carboxypropyl)carbamoyl}-S[dP][Iva][4Pal][Cha][Aib]NK[Aib]TRQR[Cha]-NH2; SMILES CC[C@](C)(NC(=O)[C@H]1CCCN1C(=O)[C@H](CO)NC(=O)NCCCC(=O)O)C(=O)N[C@@H](Cc1ccncc1)C(=O)N[C@@H](CC1CCCCC1)C(=O)NC(C)(C)C(=O)N[C@@H](CC(N)=O)C(=O)N[C@@H](CCCCN)C(=O)NC(C)(C)C(=O)N[C@H](C(=O)N[C@@H](CCCNC(=N)N)C(=O)N[C@@H](CCC(N)=O)C(=O)N[C@@H](CCCNC(=N)N)C(=O)N[C@@H](CC1CCCCC1)C(N)=O)[C@@H](C)O) [compound No. 328]	75%
0.97	1.2	(3-carboxypropyl)carbamoyl-[D-Pro24, Pya(4)26, Cha27,36, Aib28,31, Lys30]-PYY(23-36) ({(3-carboxypropyl)carbamoyl}-S[dP]R[4Pal][Cha][Aib]NK[Aib]TRQR[Cha]-NH2; SMILES C[C@@H](O)[C@H](NC(=O)C(C)(C)NC(=O)[C@H](CCCCN)NC(=O)[C@H](CC(N)=O)NC(=O)C(C)(C)NC(=O)[C@H](CC1CCCCC1)NC(=O)[C@H](Cc1ccncc1)NC(=O)[C@H](CCCNC(=N)N)NC(=O)[C@H]1CCCN1C(=O)[C@H](CO)NC(=O)NCCCC(=O)O)C(=O)N[C@@H](CCCNC(=N)N)C(=O)N[C@@H](CCC(N)=O)C(=O)N[C@@H](CCCNC(=N)N)C(=O)N[C@@H](CC1CCCCC1)C(N)=O) [compound No. 293]	51%
